# Experimental data reported in publication PMC10178127, “Immunomodulatory Effects of the Pea Defensin Psd1 in the Caco-2/Immune Cells Co-Culture upon Candida albicans Infection” (International Journal of Molecular Sciences, 2023).
# What was measured:
# C. albicans v47a3 [1] = test: Antifungal activity, microdilution method; type: cell-based, Candida albicans
# Method: Antifungal activity of recombinant Psd1 against C. albicans v47a3 was tested by the microdilution method using 96-well microplates mainly as described for this defensin in [15]. Yeast cells in half-modified YPD broth at a final concentration of 10^4 cells/mL were used. Final Psd1 concentrations in the wells were 100, 50, 25, 12.5, 6.25, 3.125, and 1.56 μM. Plates were incubated at 30 °C for 24 h. Yeast growth was estimated using an inverted microscope as well as by measuring the optical density at 540 nm. The percentage of growth inhibition was defined as growth inhibition(%) = ((Acontrol − Asample)/Acontrol) × 100%. All of the experiments were performed twice in triplicate.
# [2] = system: Caco-2 polarized monolayer; type: in vitro ADME, human
# Method: For growing cells, mimicking epithelial barriers in vitro, Caco-2 cells were seeded onto 24-well polycarbonate Millicell cell culture inserts (0.4 μm, 0.6 cm^2 surface area) (Millipore, Burlington, MA, USA), precoated with 0.2% bovine gelatin (Sigma-Aldrich), at a density of 2.5 × 10^5 cells/cm^2. The cells were grown for 21 days in a complete DMEM/F12 (1:1) medium with re-feeding every 2–3 days with a fresh complete medium. The integrity of the Caco-2 cell monolayer was checked by measuring the transepithelial electrical resistance (TEER) using a Millicell-ERS Voltohmmeter (Millipore). Only cell monolayers with TEER > 400 Ωcm^2 (after subtracting TEER in blank inserts without Caco-2 cells) were used in transport across epithelial monolayer and cytokine production experiments.
# The recombinant Psd1 was labeled with fluorescein isothiocyanate isomer I (FITC) (Sigma-Aldrich). For this, 0.5 mg of Psd1 was reconstituted in 20 µL of DMSO, then added to 100 µL of the buffer for coupling (0.1 M sodium carbonate, 0.1 M sodium bicarbonate, pH 10.8) and 3.7 mg of FITC in 100 µL of DMSO. The coupling reaction was conducted for 2 h at room temperature in the dark. In order to purify FITC-Psd1, the reaction mixture was loaded onto the PD10 gel-filtration column (GE Healthcare, Chicago, IL, USA) previously equilibrated with transport buffer (Hank’s balanced salt solution, containing 1 mM MgCl2, 1 mM CaCl2, and 10 mM D(+)glucose, pH 7.4).
# Transport of FITC-Psd1 across the Caco-2 epithelial barrier in vitro was performed in the transport buffer. Bidirectional “apical-to-basolateral” (A→B) and “basolateral-to-apical” (B→A) transport of FITC-Psd1 in the transport buffer across epithelial barrier was investigated. The “apical-to-basolateral” assay was initiated by adding 0.4 mL of 2 µM FITC-Psd1 to the apical (luminal) side of the monolayer and 0.7 mL of the transport buffer (pH 7.4) to the basolateral side of the monolayer. The “basolateral-to-apical” assay was performed in a similar manner, except that 0.4 mL of the transport buffer (pH 7.4) was added to the apical side and 0.7 mL of 2 µM FITC-Psd1 to the basolateral (serosal) side. All solutions were pre-warmed to 37 °C before taking into the transport experiment. Transport in vitro across Caco-2 barriers was conducted for 90 min in 4 independent inserts for each studied transport variant.
# An apparent permeability coefficient (Papp) was calculated for each insert according to the following equation:Papp = (V/(A × Ci)) × ΔC/Δt,(1) where V is the volume of the acceptor chamber, A is the area of the membrane insert, Ci is the initial concentration of Psd1, and ΔC/Δt is the solute flux across the barrier. Uptake ratio:UR = Papp(A→B)/Papp(B→A),(2) and efflux ratio:ER = Papp(B→A)/Papp(A→B),(3) for Psd1 were calculated from averaged apparent permeability coefficients measured in 4 independent inserts. Monolayer integrity was checked by measuring TEER before and after the end of the experiment.
# C. albicans v47a3 [3] = test: Yeast growth in Caco-2/C. albicans co-culture, microscopy; type: cell-based, Candida albicans; details: 2 μM Psd1, 4 and 24 h
# Method: Candida albicans cells in stock were inoculated onto modified YPD (yeast extract 5 g/L, peptone 10 g/L, glucose 10 g/L) agar plates, and incubated for 24 h at 37 °C. After replating, cells were cultured in complete RPMI-1640 (Capricorn Scientific) without antibiotics at 37 °C to optical density 1.0 at 540 nm, centrifuged, and diluted up to the concentration of 5 × 10^4 cells/mL in fresh RPMI-1640 without FBS and antibiotics. In the case of studying combined action on the epithelium of yeast cells and the pea Psd1 recombinant peptide was dissolved in water at the concentration of 200 μM and was added to yeast cell suspension up to the final concentration of 2 μM. Yeast growth and morphology in the presence or absence of peptide under co-cultivation with Caco-2 cells in a 24-well plate were estimated using an inverted microscope, Olympus CKX41 (Olympus, Tokyo, Japan).
substance,measurement,setting,value
"Psd1: pea defensin from Pisum sativum (UNIPROT P81929), recombinant peptide overexpressed in Escherichia coli (KTCEHLADTYRGVCFTNASCDDHCKNKAHLISGTCHNWKCFCTQNC; UniProt P81929 1-46, looked up)",IC50,"C. albicans v47a3 [1]; C. albicans v47a3, 10^4 cells/mL, half-modified YPD broth, 30 °C, 24 h, OD 540 nm, twice in triplicate, read-out: concentration of 50% growth inhibition of yeast cells",25 µM
same,effect on the morphology of the fungus,"C. albicans v47a3 [1]; C. albicans v47a3, inverted microscope",did not affect the morphology of the fungus
same,efflux ratio (ER),[2]; Caco-2,2.29
same,uptake ratio (UR),[2]; Caco-2,0.44
same,"Apparent permeability A→B coefficients (Papp), range of four inserts","[2]; Caco-2, pH 7.4",2.63–3.71 × 10^−6 cm/s
same,Papp A→B,"[2]; Caco-2, pH 7.4",3.04 ± 0.24 × 10^−6 cm/s
same,Papp B→A,"[2]; Caco-2, pH 7.4",6.96 ± 0.22 × 10^−6 cm/s
same,growth of C. albicans in Caco-2/C. albicans co-culture,C. albicans v47a3 [3],did not inhibit the growth of C. albicans
